The values below come from publication PMC3374832, “The Structure of the Oligomerization Domain of Lsr2 from Mycobacterium tuberculosis Reveals a Mechanism for Chromosome Organization and Protection” (PLoS ONE, 2012).

This data set deals with the molecule itself. As to the kind of experiment: SEC; S75 16/60GL or 10/300GL column, 20 mM tris-HCl pH 7.5, 150 mM NaCl; fresh sample, 14-week-old sample and sample treated with trypsin (1:500, 5 min, room temperature). On the technique in general: In gel filtration, larger molecules generally elute earlier.

B1: Lsr2 N-terminal dimerization domain, construct Nterm2 (residues 1-61), freshly purified (domain or fragment)
chain: MAKKVTVTLVDDFDGSGAADETVEFGLDGVTYEIDLSTKNATKLRGDLKQWVAAGRRVGGR
notes: Lsr2 (Rv3597c) of Mycobacterium tuberculosis H37Rv, residues 1-61; also called N-Lsr2; Lsr2 N-terminal domain; not shown: His6, N-terminal, kept
For B1, the “stoichiometry N” value is 2.

In general, stoichiometry N refers to a count of units in the complex or per binding partner.
